Experimental data taken from publication PMC10436556, “Epigenetic control of type III interferon expression by 8-oxoguanine and its reader 8-oxoguanine DNA glycosylase1”.

Target: NF-kB1/p50-p50 (recombinant) (UniProt P19838 1-433)
Experiment: EMSA; without OGG1, time course; WCL/NE: 10 mM Tris-HCl pH 7.5, 1 mM EDTA, 50 mM NaCl, 2 mM DTT, 5% glycerol, 0.5% NP-40, BSA, poly(I:C), RT 20 min; His-IRF3: 10 mM Tris pH 7.5, 50 mM KCl, 1 mM DTT, 1% glycerol, 5 mM MgCl2, 0.05% NP-40, poly(I:C), RT 30 min
Details: protein: recombinant; chain copies: 2; label: Cy5 on 3' end of bottom strand (Methods text says 5'-Cy5); blunt

Chain of NF-kB1/p50-p50 (recombinant) (P19838 1-433): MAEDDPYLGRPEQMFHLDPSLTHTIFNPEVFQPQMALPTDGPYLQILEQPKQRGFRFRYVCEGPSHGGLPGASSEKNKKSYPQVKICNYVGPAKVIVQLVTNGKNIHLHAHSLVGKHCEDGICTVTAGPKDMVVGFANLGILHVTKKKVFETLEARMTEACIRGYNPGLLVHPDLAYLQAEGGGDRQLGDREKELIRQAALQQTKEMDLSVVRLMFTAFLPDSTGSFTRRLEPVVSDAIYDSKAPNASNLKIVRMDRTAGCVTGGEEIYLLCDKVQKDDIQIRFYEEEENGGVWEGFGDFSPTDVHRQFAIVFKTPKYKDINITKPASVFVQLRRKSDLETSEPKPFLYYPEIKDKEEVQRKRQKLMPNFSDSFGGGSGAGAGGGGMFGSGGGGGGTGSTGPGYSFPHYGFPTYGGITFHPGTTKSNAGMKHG

B1: Pr2 (dsDNA)
DNA 1: CTGTGTTTTCACTTTTCCTACATCAGCTGGGACTGCCCTTCTGTCAGGGATAA
DNA 2: TTATCCCTGACAGAAGGGCAGTCCCAGCTGATGTAGGAAAAGTGAAAACACAG
modifications: 8-oxoG at top position 48
**Q.** Does B1 bind?
**A.** Result: binds
